Assay results taken from patent publication US20230183713A1, “SITE-SPECIFIC RECOMBINASES FOR EFFICIENT AND SPECIFIC GENOME EDITING” (TECHNISCHE UNIVERSITÄt DRESDEN, published 2023).
Changes are numbered by the printed parent chain. Names and notes keep the numbering of the source.

Legend:
[1] = molecular target: T1, Cre recombinase monomer with K201I mutation
T1 chain: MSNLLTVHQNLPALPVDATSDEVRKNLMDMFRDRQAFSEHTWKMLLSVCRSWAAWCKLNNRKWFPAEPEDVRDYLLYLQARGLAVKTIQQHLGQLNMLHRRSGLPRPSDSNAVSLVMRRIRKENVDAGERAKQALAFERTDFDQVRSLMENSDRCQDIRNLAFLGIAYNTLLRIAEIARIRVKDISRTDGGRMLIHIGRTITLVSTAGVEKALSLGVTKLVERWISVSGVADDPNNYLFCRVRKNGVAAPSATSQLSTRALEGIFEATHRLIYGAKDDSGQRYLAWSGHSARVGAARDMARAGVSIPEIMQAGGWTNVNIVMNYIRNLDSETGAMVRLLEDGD

[2] = molecular target: T2, Cre recombinase monomer with K201R mutation
T2 chain: T1 chain with I201R

[3] = molecular target: T3, Cre recombinase monomer with Q311R mutation
T3 chain: T1 chain with I201K, Q311R

[4] = molecular target: T4, Cre recombinase monomer with W315R mutation
T4 chain: T1 chain with I201K, W315R

[5] = molecular target: T5, Cre recombinase monomer with W315T mutation
T5 chain: T1 chain with I201K, W315T

[6] = molecular target: T6, Cre recombinase monomer with Y324C mutation
T6 chain: T1 chain with I201K, Y324C

[7] = molecular target: T7, Cre recombinase monomer with Y324F mutation
T7 chain: T1 chain with I201K, Y324F

[8] = molecular target: T8, Cre recombinase monomer with R292G mutation
T8 chain: T1 chain with I201K, R292G

[9] = molecular target: T9, Cre recombinase monomer with W315I mutation
T9 chain: T1 chain with I201K, W315I

[10] = molecular target: T10, Vika recombinase monomer with Q330R mutation
T10 chain: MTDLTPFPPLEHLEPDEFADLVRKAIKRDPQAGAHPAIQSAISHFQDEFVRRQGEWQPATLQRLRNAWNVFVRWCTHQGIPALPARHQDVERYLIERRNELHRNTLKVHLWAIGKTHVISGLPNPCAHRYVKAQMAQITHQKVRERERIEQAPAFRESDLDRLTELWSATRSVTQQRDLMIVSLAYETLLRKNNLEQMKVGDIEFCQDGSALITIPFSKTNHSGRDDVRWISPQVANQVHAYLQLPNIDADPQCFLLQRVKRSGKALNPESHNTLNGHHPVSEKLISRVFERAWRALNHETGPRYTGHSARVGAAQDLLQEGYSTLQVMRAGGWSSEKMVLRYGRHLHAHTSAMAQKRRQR

[11] = molecular target: T11, Cre recombinase monomer with K201N mutation
T11 chain: T1 chain with I201N

[12] = molecular target: T12, Cre recombinase monomer with W315N mutation
T12 chain: T1 chain with I201K, W315N

B1: Cre recombinase monomer with K201F mutation (protein)
chain: T1 chain with I201F
Median dimer activity (recombination on loxP) [1]: 72% | Median dimer activity (recombination on loxP) [2]: 59% | Median dimer activity (recombination on loxP) [3]: 94% | Median dimer activity (recombination on loxP) [4]: 29% | Median dimer activity (recombination on loxP) [5]: 41% | Median dimer activity (recombination on loxP) [6]: 98% | Median dimer activity (recombination on loxP) [7]: 54%

B2: Cre recombinase monomer with K201Q mutation (protein)
chain: T1 chain with I201Q
Median dimer activity (recombination on loxP) [3]: 94% | Median dimer activity (recombination on loxP) [8]: 58% | Median dimer activity (recombination on loxP) [9]: 30%

B3: Cre double mutant CreK201R+Q311R (both mutations in the same monomer) (protein)
chain: T1 chain with I201R, Q311R
recombination on loxP excision substrate in E. coli: showed no observable recombination of the loxP target sequence

B4: Vika recombinase monomer with K219R mutation (protein)
chain: T10 chain with K219R, R330Q
recombination on vox excision substrate in E. coli [10]: A similar activity profile (although with some loss of activity) was seen when Vika^K219R and Vika^Q330R were co-expressed on the vox target sequence

B5: Cre recombinase monomer with E129R mutation (protein)
chain: T1 chain with E129R, I201K
Median dimer activity (recombination on loxP) [11]: 35% | Median dimer activity (recombination on loxP) [2]: 26% | Median dimer activity (recombination on loxP) [3]: 93% | Median dimer activity (recombination on loxP) [12]: 30%
